Usually stoichiometry N stands for a count of units in the complex or per binding partner.

The target of the assay is PKM2 (pyruvate kinase M2 isoform) (human (endogenous in U87)) (UniProt P14618). In words: cross-linking; cell lysates (100 ug) of U87, T98G or LN319 cells 10 h after release, glutaraldehyde 0.125%, 5 min, 37 C, Western blot for PKM2; vehicle or DASA-58 (40 uM, 3 h). Background: Immunoblotting shows a protein as a band on a membrane.

Sequence of PKM2 (pyruvate kinase M2 isoform), P14618 1-531 (natural protein; other documents disagree on this pair) (P14618 whole entry, canonical isoform): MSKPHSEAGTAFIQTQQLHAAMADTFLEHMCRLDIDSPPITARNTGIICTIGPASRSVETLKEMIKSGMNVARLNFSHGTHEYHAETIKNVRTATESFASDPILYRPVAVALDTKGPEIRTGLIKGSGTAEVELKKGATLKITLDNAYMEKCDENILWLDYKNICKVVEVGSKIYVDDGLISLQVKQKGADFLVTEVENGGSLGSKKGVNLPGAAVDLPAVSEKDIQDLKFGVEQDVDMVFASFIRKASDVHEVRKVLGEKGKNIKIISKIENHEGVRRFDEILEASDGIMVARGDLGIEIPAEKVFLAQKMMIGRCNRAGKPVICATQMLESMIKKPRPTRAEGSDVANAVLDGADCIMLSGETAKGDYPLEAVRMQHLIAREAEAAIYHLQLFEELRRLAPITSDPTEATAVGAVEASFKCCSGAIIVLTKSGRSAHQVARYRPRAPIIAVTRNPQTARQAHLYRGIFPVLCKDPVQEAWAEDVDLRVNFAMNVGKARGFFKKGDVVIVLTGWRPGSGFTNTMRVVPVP

“PKM2 (pyruvate kinase M2 isoform), P14618 1-531 (natural protein; other documents disagree on this pair)”: the stoichiometry N came to 2.

For the origin of these results see paper PMC8981990.
